Assay results: PMC2727048

Assays:
Conditions in all cases: remark: other sources report otherwise
[1] = biological target: T1, HBV core protein of virion-derived mature capsids (Mat-C) (Hepatitis B virus), P03146; assay: Nycodenz gradient ultracentrifugation
T1 chain: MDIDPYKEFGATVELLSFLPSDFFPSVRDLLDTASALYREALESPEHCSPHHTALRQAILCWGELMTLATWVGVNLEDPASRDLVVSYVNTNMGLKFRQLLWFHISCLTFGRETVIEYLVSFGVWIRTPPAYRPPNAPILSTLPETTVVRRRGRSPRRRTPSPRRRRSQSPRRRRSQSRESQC

[2] = biological target: T1, HBV core protein of virion-derived …; assay: Nycodenz gradient ultracentrifugation; 50 ng P-Mat-C after transport reaction with 4×10^6 digitonin-permeabilized HuH-7 cells and rabbit reticulocyte lysate, lysate of the cells on the gradient; controls with WGA, cells treated with RNase A
[3] = biological target: T2, HBV core protein of E. coli-derived "recombinant" capsids (rC) (Hepatitis B virus), P03146; assay: Nycodenz gradient ultracentrifugation
T2 chain: T1 chain

B1: HBV core protein of virion-derived mature capsids (Mat-C), P03146 1-183 (natural protein)
chain: T1 chain
Q: How did the percent of the radioactivity in the four major (capsid) fractions [1] turn out when B1 was run?
A: 98%

Q: And the percent of 32P core proteins in the particle fractions [2]?
A: 99%

B2: HBV core protein of E. coli-derived "recombinant" capsids (rC), P03146 1-183 (natural protein)
chain: T1 chain
Q: With B2 as the binder, how does the percent of the radioactivity in the three major (capsid) fractions [3] read?
A: 91%
